Usually EC50 stands for the concentration giving half of the maximal effect.

Starred links: 1 amine or outer side, 2 acyl side, 3 side chain; linkers in the order of their positions; H or OH if unused. Positions of bridges follow the written chain, without caps; N, C: chain ends. Non-standard residues stand in square brackets, D forms with d. Primed or numbered codes have the meaning given here. (CH2CMe2CO2H)TriAzDap = (S)-3-(1-(2-amino-2-carboxyethyl)-1H-1,2,3-triazol-4-yl)-2,2-dimethylpropanoic acid, CC(C)(Cc1cn(C[C@H](N[*:1])C(=O)[*:2])nn1)C(=O)[*:3]; (CH2CMe2CO2H)TriAzDab = (S)-2-amino-4-(4-(2-carboxy-2-methylpropyl)-1H-1,2,3-triazol-1-yl)butanoic acid, CC(C)(Cc1cn(CC[C@H](N[*:1])C(=O)[*:2])nn1)C(=O)[*:3]; (CMe2CO2H)TriAzDab = (S)-2-amino-4-(4-(2-carboxypropan-2-yl)-1H-1,2,3-triazol-1-yl)butanoic acid, CC(C)(C(=O)[*:3])c1cn(CC[C@H](N[*:1])C(=O)[*:2])nn1; (CMe2CO2H)TriAzDap = (S)-2-amino-3-(4-(2-carboxypropan-2-yl)-1H-1,2,3-triazol-1-yl)propanoic acid, CC(C)(C(=O)[*:3])c1cn(C[C@H](N[*:1])C(=O)[*:2])nn1; PyrS2″ = (S)-3-amino-1-((pent-4-en-1-yloxy)carbonyl)pyrrolidine-3-carboxylic acid (stapling residue), C=CCCCOC(=O)N1CC[C@@](N[*:1])(C(=O)[*:2])C1; (2COOHPh)TriAzDap = (S)-2-(1-(2-amino-2-carboxyethyl)-1H-1,2,3-triazol-4-yl)benzoic acid, O=C([C@H](Cn1cc(-c2ccccc2C(=O)[*:3])nn1)N[*:1])[*:2]; (CH2CH2CO2H)TriAzDab = (S)-2-amino-4-(4-(2-carboxyethyl)-1H-1,2,3-triazol-1-yl)butanoic acid, O=C([C@H](CCn1cc(CCC(=O)[*:3])nn1)N[*:1])[*:2]; (CH2CH2CO2H)TriAzDap = (S)-2-amino-3-(4-(2-carboxyethyl)-1H-1,2,3-triazol-1-yl)propanoic acid, O=C([C@H](Cn1cc(CCC(=O)[*:3])nn1)N[*:1])[*:2]; (CH2CO2H)TriAzDab = (S)-2-amino-4-(4-(carboxymethyl)-1H-1,2,3-triazol-1-yl)butanoic acid, O=C([C@H](CCn1cc(CC(=O)[*:3])nn1)N[*:1])[*:2]; (CH2CO2H)TriAzDap = (S)-2-amino-3-(4-(carboxymethyl)-1H-1,2,3-triazol-1-yl)propanoic acid, O=C([C@H](Cn1cc(CC(=O)[*:3])nn1)N[*:1])[*:2]; B5(4) = 2,2-bis(4-pentenyl)glycine = 2-amino-2-(pent-4-en-1-yl)hept-6-enoic acid (stitching residue), C=CCCCC(CCCC=C)(N[*:1])C(=O)[*:2]; B5(5) = 2,2-bis(4-pentenyl)glycine, 2-amino-2-(pent-4-en-1-yl)hept-6-enoic acid (stitching residue), C=CCCCC(CCCC=C)(N[*:1])C(=O)[*:2]; (2COOH4NH2Ph)Dap = (S)-5-amino-2-((2-amino-2-carboxyethyl)amino)benzoic acid, Nc1ccc(NC[C@H](N[*:1])C(=O)[*:2])c(C(=O)[*:3])c1; B5(9) = 2-amino-2-(pent-4-en-1-yl)hept-6-enoic acid (2,2-bis(4-pentenyl)glycine), C=CCCCC(CCCC=C)(N[*:1])C(=O)[*:2]; (2COOHPh)TriAzDab = O=C([C@H](CCn1cc(-c2ccccc2C(=O)[*:3])nn1)N[*:1])[*:2]; d(βAsp) = O=C(O)[C@@H](CC(=O)[*:2])N[*:1]; Bta = N[C@@H](Cc1csc2ccccc12)C(=O)O; αAllylPro = C=CC[C@@]1(C(=O)O)CCCN1; tBuAla = CC(C)(C)C[C@H](N)C(=O)O; 3Thi = N[C@@H](Cc1ccsc1)C(=O)O; S8 = C=CCCCCCC[C@](C)(N)C(=O)O; PyrS2(4) = not defined here

We go through 15 molecules from US20240116985A1 (published 2024).

The chains are these.
T1: Bcat-Halo (UniProt P35222 1-781)
T1 sequence (looked up): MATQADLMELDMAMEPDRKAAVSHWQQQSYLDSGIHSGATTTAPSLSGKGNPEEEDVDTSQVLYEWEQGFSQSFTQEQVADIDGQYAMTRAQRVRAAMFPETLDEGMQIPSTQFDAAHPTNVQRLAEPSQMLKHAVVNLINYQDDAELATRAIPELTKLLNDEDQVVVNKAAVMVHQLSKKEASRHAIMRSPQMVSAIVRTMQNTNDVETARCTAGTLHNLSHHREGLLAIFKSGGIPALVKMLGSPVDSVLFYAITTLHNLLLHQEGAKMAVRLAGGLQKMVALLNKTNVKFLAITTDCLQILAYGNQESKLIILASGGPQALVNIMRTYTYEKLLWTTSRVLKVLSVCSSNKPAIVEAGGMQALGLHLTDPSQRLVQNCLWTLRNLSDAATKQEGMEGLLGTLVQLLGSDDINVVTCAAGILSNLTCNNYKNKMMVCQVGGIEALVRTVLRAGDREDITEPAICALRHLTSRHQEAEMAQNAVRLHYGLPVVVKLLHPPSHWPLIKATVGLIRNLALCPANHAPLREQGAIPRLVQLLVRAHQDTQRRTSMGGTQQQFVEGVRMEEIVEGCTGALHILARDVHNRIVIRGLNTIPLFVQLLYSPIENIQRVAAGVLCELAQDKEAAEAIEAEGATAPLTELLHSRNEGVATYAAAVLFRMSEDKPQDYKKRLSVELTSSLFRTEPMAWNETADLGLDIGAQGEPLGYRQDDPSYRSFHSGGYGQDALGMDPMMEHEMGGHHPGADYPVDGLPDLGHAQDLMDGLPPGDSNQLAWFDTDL

T2: full-length beta-Catenin (Uniprot ID P35222) (Homo sapiens (Human), UniProt P35222 2-781)
T2 construct: 'mature' is the nearest allowed form; also called bCat; B-Catenin
T2 sequence: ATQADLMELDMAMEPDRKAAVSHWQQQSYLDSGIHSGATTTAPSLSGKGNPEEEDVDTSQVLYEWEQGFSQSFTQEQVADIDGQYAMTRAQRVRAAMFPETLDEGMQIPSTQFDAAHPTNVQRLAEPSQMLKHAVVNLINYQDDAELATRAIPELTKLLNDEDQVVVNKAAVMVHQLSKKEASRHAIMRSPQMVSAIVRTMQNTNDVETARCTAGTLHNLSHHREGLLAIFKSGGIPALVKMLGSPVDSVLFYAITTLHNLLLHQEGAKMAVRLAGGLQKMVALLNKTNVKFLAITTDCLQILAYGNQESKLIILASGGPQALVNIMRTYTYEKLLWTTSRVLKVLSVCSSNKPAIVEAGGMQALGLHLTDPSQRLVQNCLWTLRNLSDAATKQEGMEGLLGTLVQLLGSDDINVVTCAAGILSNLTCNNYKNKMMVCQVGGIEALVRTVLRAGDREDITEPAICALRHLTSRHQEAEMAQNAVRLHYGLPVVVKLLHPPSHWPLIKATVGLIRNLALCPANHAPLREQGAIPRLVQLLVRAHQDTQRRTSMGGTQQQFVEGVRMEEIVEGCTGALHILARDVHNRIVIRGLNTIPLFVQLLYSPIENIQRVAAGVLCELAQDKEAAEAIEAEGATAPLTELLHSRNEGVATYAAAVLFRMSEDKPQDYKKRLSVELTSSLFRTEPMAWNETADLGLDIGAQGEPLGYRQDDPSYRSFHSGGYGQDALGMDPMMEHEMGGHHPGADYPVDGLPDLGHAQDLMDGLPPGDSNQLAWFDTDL

B1: I-646 (peptide)
peptide: Ac-[αAllylPro]DI[B5(9)]DEAAFQ[S8]F[Bta]V-NH2
modifications: staple 1-4, 4-11
notes: Stapled peptide composition; later-eluting HPLC peak (staple isomer)
B2: I-659 (peptide)
peptide: XDIXDEALFQXFXQ
modifications: not fully specified; As printed: Ac-PL3-Asp-Ile-B5-Asp-Glu-Ala-Leu-Phe-Gln-S8-Phe-BztA-Gln-NH2; N-terminal Ac; PL3 at 1, B5 at 4, S8 at 11 (stapled 1-4 and 4-11); BztA at 13; C-terminal NH2
notes: as for B1

One test has as its target T1, Bcat-Halo. Nature of the test: cell-based or functional assay.
As for Ac-[αAllylPro]D[tBuAla][B5(4)]D[(CMe2CO2H)TriAzDab]AAFL[PyrS2″][3Thi][Bta]Q-NH2 (staple 1-4, 4-11) [I-2079], the “NanoBRET Abs IC50” value was 15.1 µM.
Consider Ac-[αAllylPro]D[tBuAla][B5(4)]D[(2COOHPh)TriAzDap]AAFL[PyrS2″][3Thi][Bta]Q-NH2 (staple 1-4, 4-11) [I-2086], for which the “NanoBRET Abs IC50” value came to 16.4 µM.
For the molecule Ac-[αAllylPro]D[tBuAla][B5(4)]D[(2COOHPh)TriAzDab]AAFL[PyrS2(4)][3Thi][Bta]Q-NH2 (staple 1-4, 4-11; not fully specified; reading uncertain) [I-2081], the “NanoBRET Abs IC50” value stood at 11.6 µM.
Turning to Ac-[αAllylPro]D[tBuAla][B5(4)]D[(CH2CO2H)TriAzDap]AAFL[PyrS2″][3Thi][Bta]Q-NH2 (staple 1-4, 4-11) [I-2084], the “NanoBRET Abs IC50” value was 9.2 µM.
On the same count and under the same terms, then Ac-[αAllylPro]D[tBuAla][B5(4)]D[(2COOH4NH2Ph)Dap]AAFL[PyrS2″][3Thi][Bta]Q-NH2 (staple 1-4, 4-11) [I-2087], with 6.5 µM.
For the molecule Ac-[αAllylPro]D[tBuAla][B5(4)]D[(2COOHPh)TriAzDab]AAFL[PyrS2″][3Thi][Bta]Q-NH2 (staple 1-4, 4-11; not fully specified) [I-2080], the “NanoBRET Abs IC50” value was determined as 28.8 µM.
Ac-[αAllylPro]D[tBuAla][B5(4)]D[(CH2CO2H)TriAzDab]AAFL[PyrS2″][3Thi][Bta]Q-NH2 (staple 1-4, 4-11) [I-2078]: the “NanoBRET Abs IC50” value was 11.7 µM.
On to Ac-[αAllylPro]D[tBuAla][B5(4)]D[(CMe2CO2H)TriAzDap]AAFL[PyrS2″][3Thi][Bta]Q-NH2 (staple 1-4, 4-11) [I-2085], for which the “NanoBRET Abs IC50” value worked out at 6.2 µM.
For Ac-[αAllylPro]D[tBuAla][B5(4)]D[(CH2CH2CO2H)TriAzDap]AAFL[PyrS2″][3Thi][Bta]Q-NH2 (staple 1-4, 4-11) [I-2082], the “NanoBRET Abs IC50” value turned out to be 7.7 µM.
As for Ac-[αAllylPro]D[tBuAla][B5(4)]D[(CH2CMe2CO2H)TriAzDap]AAFL[PyrS2″][3Thi][Bta]Q-NH2 (staple 1-4, 4-11) [I-2083], the “NanoBRET Abs IC50” value was found to be 3.7 µM.
Take Ac-[αAllylPro]D[tBuAla][B5(4)]D[(CH2CMe2CO2H)TriAzDab]AAFL[PyrS2″][3Thi][Bta]Q-NH2 (staple 1-4, 4-11) [I-2077]: the “NanoBRET Abs IC50” value was 12.3 µM.
Ac-[αAllylPro]D[tBuAla][B5(4)]D[(CH2CH2CO2H)TriAzDab]AAFL[PyrS2″][3Thi][Bta]Q-NH2 (staple 1-4, 4-11) [I-2076]: the “NanoBRET Abs IC50” value came out at 14.1 µM.

Another test deals with T2, full-length beta-Catenin (Uniprot ID …). Nature of the test: fluorescence polarization competition, full-length beta-catenin with 5FAM-TCF4(10-53) probe as competitor. The method, then:
The plate was incubated protected from light for 60 minutes at 20° C. prior to read. Reads were performed on a CLARIOstar plate reader (BMG Labtech) in duplicate, and data were fitted to a 1:1 binding model with hill slope using an in-house script. All provided concentrations are final concentrations.
The molecule Ac-[αAllylPro]DI[B5(5)][d(βAsp)]EAAFQ[S8]F[Bta]Q-NH2 (staple 1-4, 4-11, Stapled peptide composition) [I-674] yielded an EC50 of 5 µM.
B1: the midpoint of the response, the EC50, lay at 0.461 µM. This EC50 lies about 11-fold lower than the previous one.
B2 came in with an EC50 of 0.43 µM.
